Assay: soluble fraction after stress (log2 fold change); higher = more stays soluble; pooled small domains, quantitative proteomics
Settings: stress: 75 degC
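Also: 20 min heating vs room temperature control held 20 min.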

Point of comparison: “HMDNPLSQQEKRILQLISLGKTNQEIADILYLSNGTVRNYISSILNKLSANNRVEAARIAEEHGW”, “soluble fraction (log2)” value -0.755. Against it:
- HMDNPNVMAQVKSLLASKGLSEQEVKERLKAKGLNIDAMSDAEIAQNRSVIEQTIAELEAEKKKAG — higher, 0.205
- HMDNPYEVFIPNSYIGQRLDQTLASLFPQFSRSRLQNWLASGNLLVNGKIVKPKTKILGGEQINILDPYN — within 0.2 log units, -0.608
- HMDNTFEEVKEKLLDLLKERPLTPAEVSKRMEEDKNILAQVIQYLLEEEIIKTEDGMLSKVIG — higher, -0.038
- HMDNWYIAFNSFLSQNKLTAKNVSELTGLSKPTIDSYKQGKRKPTDENMQIIKDKLGFNISEILYN — higher, -0.0615
- HMDPDDEILINIMTKLLTEKQIIIKNKEIFNFLLKRINRTYEEVYNLINKMDKLSLEKKKQLTIPSIKEL — lower, -1.71
- HMDPEEETLKNMQRMLQDSGPLKKTEFSLLAKSLGIAEKKARKLIDRGRGRFWTVESGEQKNTQLVTPIQ — higher, -0.108
- HMDPERVVGQTGIVHLRIPARQHNTGKVMIEVQGSLREFDAVSEAEEIPTGTPILIVGRTEEGVFIAQPF — higher, -0.286
- HMDPGPVLISAQVLDDLEAIRRDGSSNMLDWPAVARLAEVMGMDRTAAWVRTHHREYSAGIFRGFASD — lower, -1.93
- HMDPHEEELLRQLIRGDIAGYEVLFHKYYPTFFAFIKGMTKETVVAEDITQNIFMKVWLNRERLDAA — higher, -0.145
- HMDPIATLTPREREVLSLMAEGRSNGAIAAALVVGDGAVEKHVSNIFQKLELTPAEGDHRRVLAVLRWLE — within 0.2 log units, -0.909
- HMDPLADLFSRIRNAQMRNKKVVTSPASKLRAGILEVLAKEGYIRGYAMTQHASGKNELDIELN — lower, -1.05
- HMDPNAITSAQVTKLQVLANEKGFAERQARLTMWAEVIGRNVGTANELTKAEAHKLIEHMDALPV — within 0.2 log units, -0.691
- HMDPNFKYIIRIANSDVSGEQKLAYALTSIRGIGERTSNAIIQKLGLDSTQLAGKLTDKNVEDIESA — higher, 0.092
- HMDPPQEVWDLTRSYLDSMNRPVHGHKSPQETYLRQVKSHRLPATALWDYFMAQRFHAVHATSESAA — higher, -0.127
- HMDPPYKDKNLHELLLKINNLNILKKDSVIILHRHKKQKEIFPSNFKIIEQKQYGISKIIFLTVL — higher, -0.00334
- HMDPRTSSLTPQERKVLELVGGGLTNRQIAAEMFLAEKTVKNYVSSLLAKLGFERRTQAAVFIASPAF — higher, -0.54
- HMDPSKLVEVQEPVSMKALSEGLGIKVTELIATFAFKLKIGGKNINSMLSNDEVELVALDLERNIKVV — higher, 0.258
- HMDPTEPLFVGVVTAEPYLNIREYPTTQSKDLGDLFPGMHVNVYEIVPNWYRIDDGWVASAWVKRDWGGG — higher, -0.478
- HMDPTIRRGELIDAASRLFLSKGYAATSVRDILDEVGNRTASPSVFYYYFKSKEEIYQAVLRRHSE — lower, -1.51
- HMDPTVSGQTGSVVREIRPGVPGEVELSVPLYGIRRWQAMADGILAEGTRVTVIQAEGVRLSVRPV — lower, -1.24
- HMDPTVTFIVQVNGRVRDKITLSSDISENEAKNVALESPKITPHISGKSLSRVIFVPGKLINLVV — lower, -1.06
- HMDPVATLTPREREVLELMAEGRTNAGIAEAMVVTEGAVEKHIQRIFAKLGLHADGGVHRRVAAVLALLG — lower, -1.38
- HMDQDIILHKVQPGDTLSKILLHYHSHQDRNKLQGLIAESMTANPFIKNPDLIYPGQLIQVPVPA — higher, 0.0879
- HMDQFMLQSAWLRAVQHVMKHTDDVGTQFAEEARRMHYGEADERPIRGQATSDEARALHDEGIEVMALPI — higher, -0.36
- HMDQILIHLKEGIDVTDVQPMLKALDLNVRMFNRDKNIIVISVLNRELDAIPQTIAALRPWEELFDSA — higher, 0.171
- HMDQNVSVPKLAGLQVEEANAILKSKGLHIEIIDSIYQKDAVPGAIIEQVPEENSKVKKGRAIYVSVYAK — within 0.2 log units, -0.65
- HMDQVYYDLKSLIELLPADQMEVLKMRYFEELSFKKIAQKIDVSINTALGRMRYALINLRALSKKHHID — higher, -0.272
- HMDRDMGSMTDFENVRDAYLTGKVWNVGDLIEANGITGIIIRKGTNYVSYNDGDGKVHKAWLHDITL — within 0.2 log units, -0.802
- HMDREILWTNYVAARKQEFIASSIDTIGAEYLDNRRFWDTQFEREWTIIAERLASGFGLTDDILSIVGSDF — lower, -4.12
- HMDRETEEYELIRAKLEWLYQKQTGTIRNQTAKILHHLEIAKEEGNYYLYLKIKEEAKQWLVQASMYLD — within 0.2 log units, -0.638
- HMDRGDVTREALIKAAIEIFGRDGFHAASTRAIAERAGANQALIGYHFRGKLGLYHATFEYIIGKI — higher, -0.351
- HMDRMINYSPIVAKVPQDDYTTKVYNIPIYSELTVVDKISEPEPLIAPIYRFKYITPEDEEIEFDIPV — higher, -0.00941
- HMDRMMQPETWGRVYQWITDDPQVPDREEVLTLIKYHYGDFGKLMKLLHRLNEGKAWTYLSEHIFPRM — higher, -0.254
- HMDRNEFVSTLRAALTGAVSPAIVEDNVRYYQNYISQEIASGKSEKEVLDGLGDPRLIARTIIDT — higher, 0.0747

Source: the domain aggregation screens of Martell et al. (2025)
